Measurements from paper PMC3025492.

Molecular target: GST-capicua (1-450) (Homo sapiens, UniProt Q96RK0-2 1-450)
Experiment: EMSA

B1: CRE probe (ETV4/ETV5 promoter CIC-responsive element) (dsDNA)
DNA 1: GTCGCGTTTTTTATGAATGAAAAACGTCCTTACATTCATT
DNA 2: AATGAATGTAAGGACGTTTTTCATTCATAAAAAACGCGAC
Question: Does B1 bind?
Answer: Result: binds
